Data as given in patent publication US20190144517A1 (SHANGHAI JW INFLINHIX, published 2019).

Target: T1, TNF receptors on L929 cells (mouse, UniProt P25118 30-454)
T1 construct: whole, on cells; The result text says 'TNF receptors'; the staining used an anti-TNFR1 antibody; also called cell surface receptors; TNFR1
T1 sequence (looked up): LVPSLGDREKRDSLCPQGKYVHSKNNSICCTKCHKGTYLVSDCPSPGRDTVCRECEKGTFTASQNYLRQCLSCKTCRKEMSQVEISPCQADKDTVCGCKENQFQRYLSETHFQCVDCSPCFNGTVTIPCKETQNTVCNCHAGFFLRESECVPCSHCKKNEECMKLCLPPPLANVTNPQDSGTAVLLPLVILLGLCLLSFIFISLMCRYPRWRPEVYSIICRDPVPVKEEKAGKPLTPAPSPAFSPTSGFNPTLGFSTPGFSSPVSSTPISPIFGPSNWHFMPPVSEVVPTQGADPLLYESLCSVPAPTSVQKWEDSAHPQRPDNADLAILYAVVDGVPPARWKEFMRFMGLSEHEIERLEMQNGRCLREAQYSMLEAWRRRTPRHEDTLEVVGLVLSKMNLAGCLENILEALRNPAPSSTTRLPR
Assay: confocal immunofluorescence on L929 cells
Method: The cells were fixed with 4% paraformaldehyde (PBS formulation) were for 10 minutes, blocked with phosphate buffer containing 0.5% BSA and 0.1% cold water fish gelatin for 15 minutes, and then incubated with rabbit anti-TNFR1 antibody (Abeam) for 1 hour. The cells were washed with PBS and then incubated with the relevant secondary antibody coupled to Alexa Fluor 488 or Alexa Fluor 568 (Invitrogen). Then the sample washed with PBS was mounted with Gelvatol/DABCO (Sigma-Aldrich). DNA was counterstained with DAPI (Sigma-Aldrich). All samples were analyzed by fluorescence microscopy at 60× using Nikon Eclipse 80i. Images were taken with NIS-Elements AR3.0 software using Hamamatsu camera.

- binding result: no binding (tested: 2 µg/ml)
B1: monoclonal antibody 244-12 (antibody, mouse IgG2b, kappa, V domains shown)
VH: QIQLVQSGPELKKPGETVKISCKASGYTFTNYGMNWVKQAPGKGLKWMGWINTYTGEPTYADDFKGRFAFSLETSANTAYLQINNLRNEGMATYFCARHYRYAWFPYWGQGTLVTVSA
VL: DIQMTQSPASLSASVGETVTITCRASGNIHIYLAWYQQKQGKSPQLLVYNAKTLADGVPSRFSGSGSGTQYSLKINSLQPEDFGSYYCQHFWSIPWTFGGGTKLEIKR
notes: It was detected with an anti-mouse IgG secondary antibody
